Results published in paper PMC11227723.

Molecular target: Tropomyosin receptor kinase B (human TrkB), stably expressed in NIH-3T3 cells (human) (UniProt Q16620)
UniProt Q16620, sequence (Q16620 32-822): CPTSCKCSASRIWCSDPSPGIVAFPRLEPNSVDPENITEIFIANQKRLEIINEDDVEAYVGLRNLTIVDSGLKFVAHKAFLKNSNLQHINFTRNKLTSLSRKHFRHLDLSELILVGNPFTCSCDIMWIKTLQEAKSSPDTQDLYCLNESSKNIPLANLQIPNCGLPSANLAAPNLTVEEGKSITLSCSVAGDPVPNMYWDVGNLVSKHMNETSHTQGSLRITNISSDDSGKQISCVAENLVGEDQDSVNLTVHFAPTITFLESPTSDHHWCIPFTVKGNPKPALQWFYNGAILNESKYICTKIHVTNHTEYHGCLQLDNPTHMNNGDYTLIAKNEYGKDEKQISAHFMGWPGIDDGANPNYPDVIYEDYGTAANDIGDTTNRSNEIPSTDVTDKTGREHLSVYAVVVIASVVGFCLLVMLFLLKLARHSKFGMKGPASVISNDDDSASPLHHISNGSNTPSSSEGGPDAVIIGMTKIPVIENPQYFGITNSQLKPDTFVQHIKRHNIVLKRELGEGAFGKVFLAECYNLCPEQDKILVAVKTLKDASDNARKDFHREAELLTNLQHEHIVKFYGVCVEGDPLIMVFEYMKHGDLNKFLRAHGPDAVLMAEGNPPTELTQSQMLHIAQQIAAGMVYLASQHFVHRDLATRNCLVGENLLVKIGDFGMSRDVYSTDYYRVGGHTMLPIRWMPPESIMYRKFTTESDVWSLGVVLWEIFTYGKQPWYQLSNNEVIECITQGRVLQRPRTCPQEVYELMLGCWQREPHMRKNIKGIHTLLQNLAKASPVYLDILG

- TrkB phosphorylation (Western blot of phosphorylated and total TrkB) in NIH-3T3-TrkB cells after 20 min with BDNF (500 ng/mL), fold change against the untreated control: 1.87 fold change
Substance: Brain-derived neurotrophic factor (ligand)
